Measurements published in patent US11202837B2, “Biological materials and uses thereof” (Antikor Biopharma Limited, priority 2014, dated 2021).
Like-named read-outs stand apart in the source and are kept apart here. Where a SMILES comes first, the peptide text is derived from it. [ ]: non-standard residue; d: D form. Dolaproine = CO[C@@H]([C@@H]1CCCN1)[C@@H](C)C(=O)O; Dil = CC[C@H](C)[C@H](NC)[C@@H](CC(=O)O)OC; NMeV = CN[C@H](C(=O)O)C(C)C

Columns and labels:
[1] = tested on: BT474 human breast carcinoma xenografts; assay: Tumour growth inhibition or eradication in BT474 xenograft model; type: in vivo; conditions: free payload treated group
Description: Mice. […] The animals were fed ad libitum water (reverse osmosis, 1 ppm Cl), and NIH 31 Modified and Irradiated Lab Diet® consisting of 18.0% crude protein, 5.0% crude fat, and 5.0% crude fiber. The mice were housed on irradiated Enrich-o'cobs™ Laboratory Animal Bedding in static microisolators on a 12-hour light cycle at 20-22° C. (68-72° F.) and 40-60% humidity. Charles River Discovery Services North Carolina (CR Discovery Services, who carried out this contracted R&D) specifically complies with the recommendations of the Guide for Care and Use of Laboratory Animals with respect to restraint, husbandry, surgical procedures, feed and fluid regulation, and veterinary care.
Tumor weight may be estimated with the assumption that 1 mg is equivalent to 1 mm^3 of tumor volume.

[2] = Aggregation by HPLC size-exclusion chromatography; type: physicochemical; conditions: purified or analysed conjugate vs unconjugated antibody
Description: Aggregation can be tested by analytical size-exclusion HPLC measuring the percentage of high molecular weight material compared to the conjugate eluting at a retention time characteristic of a monomeric conjugate.
Typically, 20 μg of protein was injected for analytical runs and 300 μg for semi-preparative runs.

[3] = Concentration reached and storage stability of purified conjugates in buffer; type: physicochemical
HER2 = HER2 (Homo sapiens, UniProt P04626); assay: Biacore SPR binding to immobilised HER2; conditions: compared to unmodified scFv
How it was run: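 HER2 amine-coupled on CM5 or CM3 chips, Biacore T200. Free antibody (typically 5-0.6 μg/ml) and conjugates (20-2.5 μg/ml) injected 160 s at 30 μl/min, 900 s dissociation (3600 s at highest concentration); regeneration with 8M MgCl2. Kinetics compared with unmodified scFv.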

BT474 cells = assay: Cell killing assay (MTS), BT474 cells; type: cell-based, human; conditions: BT474 Cells (HER2++), 96 hours, Table 49; for IC50: read-out: IC50
How it was run: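 BT474 and NCI-N87 cells plated at 7500 cells/well in RPMI and exposed to ADCs for 96 h at 37 °C, 5% CO2. Viability read by MTS absorbance at 490 nm after 2 h, scaled between untreated (100% survival) and Triton X-100 (100% death) controls. Dose-response curves fitted from at least 3 repeats.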

NCI-N87 cells = assay: Cell killing assay (MTS), NCI-N87 cells; type: cell-based, human; conditions: 96 hours
Description: (§1) The cells were recovered by centrifugation (2 min, 2000 rpm), the supernatant was discarded, and the cells were resuspended in complete McCoy's 5A (5 ml). The cells were then counted using a haemocytometer and diluted accordingly. They were plated at 5000 cells/well (200 μl) using attachment factor and incubated overnight at 37° C., 5% CO2 in a humidified atmosphere. U87 is a non-HER2 expressing glioblastoma cell line [Zitron I M et al (2013) BMC Cancer 13:83] and was grown in a similar way, plated at 1000 cells/well (using DMEM media). BT474 is a HER2 expressing breast cancer cell line [Brockhoff G et al (2007) Cell Prolif 40:488-507] and was grown in a similar way, plated at 7500 cells/well (using RPMI media). NCI-N87 is a HER2 expressing gastric cancer cell line [Yamashita-Kashima Y et al (2013) Oncol. Rep 30:1087-93] and was grown in a similar way, plated at 7500 cells/well (using RPMI media).
(§2) The cells were exposed to the various ADCs diluted in complete media for 96 hours at 37° C., 5% CO2 in a humidified atmosphere. Cell viability was measured using the Promega Aqueous Cell-titre-96™ aqueous one solution cell proliferation kit (MTS reagent) according to manufacturer's instructions. Briefly, the media was removed and 100 μl of complete phenol red free media, pre-combined with MTS reagent, was added to the cells (20 μl of reagent per 100 μl of media). The plates were read on an ELISA plate reader at 490 nm after a 2 hr incubation in the dark (5% CO2, 37° C.).
(§3) The data (absorption units) were converted to % cell survival by using the untreated controls as the 100% cell survival and the Triton X-100 controls as the 100% cell death. The average absorption value for the latter was subtracted from all the rest of the data in order to get a suitable baseline. The averages were converted to survival and standard error values were obtained for each n value (as a % cell survival). […] Experiments were repeated at least 3 times for each compound tested and a set or an average of the data was plotted and fitted to obtain a dose-response curve.

SKBr3 cells = assay: Cell killing assay (MTS), SKBr3 cells; type: cell-based, human; conditions: SKBr3 Cells (HER2+++), 96 hours; for IC50: read-out: IC50
U87 cells = assay: Cell killing assay (MTS), U87 cells; type: cell-based; conditions: U87 Cells (HER2−), 96 hours, Table 51
Description: SKBr3, human breast cancer cell line, high HER2 expression levels, up to 1,000,000 receptors per cell [Lazar G A, et al Proc Natl Acad Sci USA. […] When confluency was 70-80%, cells were washed with PBS (2×10 ml) and incubated with trypsin for 5-7 min. Complete media was added and the cells were resuspended by pipetting. The cells were recovered by centrifugation (2 min, 2000 rpm), the supernatant was discarded, and the cells were resuspended in complete DMEM (5 ml). The cells were then counted using a haemocytometer and diluted accordingly. They were plated at 4500 cells/well (200 μl) using attachment factor and incubated overnight at 37° C., 5% CO2 in a humidified atmosphere. U87 is a non-HER2 expressing glioblastoma cell line and was grown in a similar way, plated at 1000 cells/well.
as §2, with “kit” for “kit (MTS reagent)”
as §3, with “dose response” for “dose-response”
as §1, §2
The data (absorption units) were converted to % cell survival by using the untreated controls as the 100% cell survival and the Triton X-100 controls as the 100% cell death. The average absorption value for the latter was subtracted from all the rest of the data in order to get a suitable baseline. The averages were converted to survival and standard error values were obtained for each n value (as a % cell survival).

[4] = NCI-N874 Cells (HER2++), Table 49
[5] = NCI-N87 Cells (HER2++), Table 51

Molecule: CC[C@H](C)[C@@H]([C@@H](CC(=O)N1CCC[C@H]1[C@H](OC)[C@@H](C)C(=O)N[C@@H](Cc1ccccc1)C(=O)O)OC)N(C)C(=O)[C@@H](NC(=O)[C@@H](NC)C(C)C)C(C)C [Free MMAF, monomethyl auristatin F, reference compound] (H-[NMeV]V[Dil][Dolaproine]F-OH)
- tumour growth (in words) [1]: grew rapidly

B1: scFv (TCT)-Auristatin F-C5: scFv (TCT) conjugated with Auristatin-F-C5-NHS (compound 88), 30 equivalents, average DAR 8.5 (conjugate)
scFv: SGSGGSGQVQLVQSGAEVKKPGESLKISCKGSGYSFTSYWIAWVRQMPGKGLEYMGLIYPGDSDTKYSPSFQGQVTISVDKSVSTAYLQWSSLKPSDSAVYFCARHDVGYCSSSNCAAWPEYFQHWGQGTLVTVSSGGGGSGGGGSGGGGSQSVLTQPPSVSAAPGQKVTISCSGSSSNIGNNYVSWYQQLPGTAPKLLIYGHTNRPAGVPDRFSGSKSGTSASLAISGFRSEDEADYYCAAWDDSLSGWVFGGGTKLTVLMASMTGGQQMG
- aggregation by HPLC-SEC (in words) [2]: no aggregation
- time stable in the buffer ([3]; after purification and concentration): several weeks
- concentration to which purified conjugates were concentrated ([3]; in buffer after SEC purification): ~600 µg/mL
- binding function against immobilised HER2 (in words) (HER2): verified

B2: scFv (TCT1067)-Auristatin F-C5, DAR 6.2 (conjugate)
scFv: SGSGGSGQVQLVQSGAEVKKPGESLKISCKGSGYSFTSYWIAWVRQMPGKGLEYMGLIYPGDSDTKYSPSFQGQVTISVDKSVSTAYLQWSSLKPSDSAVYFCARHDVGYCTDRTCAAWPEWLGVWGQGTLVTVSSGGGGSGGGGSGGGGSQSVLTQPPSVSAAPGQKVTISCSGSSSNIGNNYVSWYQQLPGTAPKLLIYGHTNRPAGVPDRFSGSKSGTSASLAISGFRSEDEADYYCASWDYTLSGWVFGGGTKLTVLMASMTGGQQMG
- IC50 μg/ml (BT474 cells): 0.00112 µg/mL
- IC50 (BT474 cells): 0.0399 nM
- IC50 μg/ml (NCI-N87 cells; [4]): 0.00036 µg/mL
- IC50 (NCI-N87 cells; [4]): 0.0129 nM
- IC50 μg/ml (SKBr3 cells; Table 49): 0.00101 µg/mL
- IC50 (SKBr3 cells; Table 49): 0.0361 nM

B3: scFv (TCT1067)-MMAE-PAB-Cit-Val-dPEG9, DAR 9 (conjugate)
scFv: SGSGGSGQVQLVQSGAEVKKPGESLKISCKGSGYSFTSYWIAWVRQMPGKGLEYMGLIYPGDSDTKYSPSFQGQVTISVDKSVSTAYLQWSSLKPSDSAVYFCARHDVGYCTDRTCAAWPEWLGVWGQGTLVTVSSGGGGSGGGGSGGGGSQSVLTQPPSVSAAPGQKVTISCSGSSSNIGNNYVSWYQQLPGTAPKLLIYGHTNRPAGVPDRFSGSKSGTSASLAISGFRSEDEADYYCASWDYTLSGWVFGGGTKLTVLMASMTGGQQMG
modifications: non-natural residues
- IC50 μg/ml (NCI-N87 cells; [5]): 0.195 µg/mL
- IC50 (NCI-N87 cells; [5]): 6.95 nM
- IC50 μg/ml (U87 cells): 0.1 µg/mL
- IC50 (U87 cells; read-out: IC50): 3.57 nM
- IC50 μg/ml (SKBr3 cells; Table 51): 0.04476 µg/mL
- IC50 (SKBr3 cells; Table 51): 1.59 nM

B4: scFv (TCT1067)-Auristatin F-C5, DAR 11.8 (conjugate)
scFv: SGSGGSGQVQLVQSGAEVKKPGESLKISCKGSGYSFTSYWIAWVRQMPGKGLEYMGLIYPGDSDTKYSPSFQGQVTISVDKSVSTAYLQWSSLKPSDSAVYFCARHDVGYCTDRTCAAWPEWLGVWGQGTLVTVSSGGGGSGGGGSGGGGSQSVLTQPPSVSAAPGQKVTISCSGSSSNIGNNYVSWYQQLPGTAPKLLIYGHTNRPAGVPDRFSGSKSGTSASLAISGFRSEDEADYYCASWDYTLSGWVFGGGTKLTVLMASMTGGQQMG
- IC50 μg/ml (BT474 cells): 0.01082 µg/mL
- IC50 (BT474 cells): 0.386 nM
- IC50 μg/ml (NCI-N87 cells; [4]): 0.0087 µg/mL
- IC50 (NCI-N87 cells; [4]): 0.31 nM
- IC50 μg/ml (SKBr3 cells; Table 49): 0.00844 µg/mL
- IC50 (SKBr3 cells; Table 49): 0.299 nM
